Numbered stars: 1 amine (or outer) side, 2 acyl side, 3 side chain; on linkers, the order of the positions; unused ones are H or OH. Bridge positions count the residues as written; N and C are the ends. Side chains are listed from the residue outwards. Ends that are not written are not given here. * marks the point of attachment. C20 diacid = O=C(O)CCCCCCCCCCCCCCCCCCC(=O)*; γGlu = O=C(O)[C@H](CCC(=O)[*:2])N[*:1]; AEEA = NCCOCCOCC(=O)O
Assays:
[1] = biological target: T1, human amylin receptor (amylin 3(a) receptor: human calcitonin receptor co-expressed with RAMP-3) (human, UniProt P30988 25-474; O60896 24-148, limits assumed); test: cell-based or functional assay
T1 sequence (looked up) 1: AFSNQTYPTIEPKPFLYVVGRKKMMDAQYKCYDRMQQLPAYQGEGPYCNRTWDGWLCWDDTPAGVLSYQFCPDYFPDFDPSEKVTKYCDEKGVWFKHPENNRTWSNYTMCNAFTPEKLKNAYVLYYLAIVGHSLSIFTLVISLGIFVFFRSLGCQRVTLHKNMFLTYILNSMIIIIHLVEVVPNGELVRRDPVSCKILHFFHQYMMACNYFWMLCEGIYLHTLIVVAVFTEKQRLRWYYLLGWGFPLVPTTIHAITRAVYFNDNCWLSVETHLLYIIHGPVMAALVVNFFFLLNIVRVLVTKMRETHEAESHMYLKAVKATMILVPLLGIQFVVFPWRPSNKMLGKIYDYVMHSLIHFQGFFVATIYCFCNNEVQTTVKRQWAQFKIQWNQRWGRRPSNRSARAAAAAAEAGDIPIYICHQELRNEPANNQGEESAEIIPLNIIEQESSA
T1 sequence (looked up) 2: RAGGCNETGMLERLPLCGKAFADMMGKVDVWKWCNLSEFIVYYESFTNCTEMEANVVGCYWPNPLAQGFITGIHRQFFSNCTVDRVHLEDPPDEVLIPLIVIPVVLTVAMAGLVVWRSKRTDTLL

[2] = biological target: T2, human calcitonin receptor (human, UniProt P30988 25-474); test: cell-based or functional assay
T2 sequence (looked up): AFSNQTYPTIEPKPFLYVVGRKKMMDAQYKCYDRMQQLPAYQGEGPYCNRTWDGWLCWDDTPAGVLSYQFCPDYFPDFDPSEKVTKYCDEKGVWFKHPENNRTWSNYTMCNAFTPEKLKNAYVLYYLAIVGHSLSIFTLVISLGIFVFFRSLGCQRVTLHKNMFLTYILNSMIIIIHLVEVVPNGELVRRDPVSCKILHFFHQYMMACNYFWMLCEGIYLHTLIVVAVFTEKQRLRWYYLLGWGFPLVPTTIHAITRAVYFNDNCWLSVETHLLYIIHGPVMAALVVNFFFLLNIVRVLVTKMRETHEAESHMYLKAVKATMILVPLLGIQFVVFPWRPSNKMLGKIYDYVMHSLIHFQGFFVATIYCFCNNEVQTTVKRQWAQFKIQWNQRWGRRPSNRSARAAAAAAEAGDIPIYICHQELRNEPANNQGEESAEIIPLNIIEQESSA

B1: N^ε1-[2-[2-[2-[[(4S)-4-carboxy-4-(19-carboxynonadecanoylamino)butanoyl]amino]ethoxy]ethoxy]acetyl]-[Arg17,Pro21,Pro27,Pro31]-h-amylin (peptide)
peptide: K([AEEA-γGlu-C20 diacid])CNTATCATQRLANFLRHSSPNFGAIPSSTPVGSNTY-NH2
modifications: disulfide 2-7; N-terminus assumed
SMILES: CC[C@H](C)[C@H](NC(=O)[C@H](C)NC(=O)CNC(=O)[C@H](Cc1ccccc1)NC(=O)[C@H](CC(N)=O)NC(=O)[C@@H]1CCCN1C(=O)[C@H](CO)NC(=O)[C@H](CO)NC(=O)[C@H](Cc1c[nH]cn1)NC(=O)[C@H](CCCNC(=N)N)NC(=O)[C@H](CC(C)C)NC(=O)[C@H](Cc1ccccc1)NC(=O)[C@H](CC(N)=O)NC(=O)[C@H](C)NC(=O)[C@H](CC(C)C)NC(=O)[C@H](CCCNC(=N)N)NC(=O)[C@H](CCC(N)=O)NC(=O)[C@@H](NC(=O)[C@H](C)NC(=O)[C@@H]1CSSC[C@H](NC(=O)[C@@H](N)CCCCNC(=O)COCCOCCNC(=O)CC[C@H](NC(=O)CCCCCCCCCCCCCCCCCCC(=O)O)C(=O)O)C(=O)N[C@@H](CC(N)=O)C(=O)N[C@@H]([C@@H](C)O)C(=O)N[C@@H](C)C(=O)N[C@@H]([C@@H](C)O)C(=O)N1)[C@@H](C)O)C(=O)N1CCC[C@H]1C(=O)N[C@@H](CO)C(=O)N[C@@H](CO)C(=O)N[C@H](C(=O)N1CCC[C@H]1C(=O)N[C@H](C(=O)NCC(=O)N[C@@H](CO)C(=O)N[C@@H](CC(N)=O)C(=O)N[C@H](C(=O)N[C@@H](Cc1ccc(O)cc1)C(N)=O)[C@@H](C)O)C(C)C)[C@@H](C)O
notes: also called compound 49
[1]
  hAmylin-R funct. EC50: 0.106 nM
[2]
  Ratio hCT/hAmylin funct. (hCTR EC50 against hAmylin-R EC50): 22.5
  hCTR funct. EC50: 2.39 nM

B2: N^ε1-[2-[2-[2-[[(4S)-4-carboxy-4-(19-carboxynonadecanoylamino)butanoyl]amino]ethoxy]ethoxy]acetyl]-[Gly14,Arg17,Pro21,Pro27,Pro31]-h-amylin (peptide)
peptide: K([AEEA-γGlu-C20 diacid])CNTATCATQRLAGFLRHSSPNFGAIPSSTPVGSNTY-NH2
modifications: disulfide 2-7; N-terminus assumed
SMILES: CC[C@H](C)[C@H](NC(=O)[C@H](C)NC(=O)CNC(=O)[C@H](Cc1ccccc1)NC(=O)[C@H](CC(N)=O)NC(=O)[C@@H]1CCCN1C(=O)[C@H](CO)NC(=O)[C@H](CO)NC(=O)[C@H](Cc1c[nH]cn1)NC(=O)[C@H](CCCNC(=N)N)NC(=O)[C@H](CC(C)C)NC(=O)[C@H](Cc1ccccc1)NC(=O)CNC(=O)[C@H](C)NC(=O)[C@H](CC(C)C)NC(=O)[C@H](CCCNC(=N)N)NC(=O)[C@H](CCC(N)=O)NC(=O)[C@@H](NC(=O)[C@H](C)NC(=O)[C@@H]1CSSC[C@H](NC(=O)[C@@H](N)CCCCNC(=O)COCCOCCNC(=O)CC[C@H](NC(=O)CCCCCCCCCCCCCCCCCCC(=O)O)C(=O)O)C(=O)N[C@@H](CC(N)=O)C(=O)N[C@@H]([C@@H](C)O)C(=O)N[C@@H](C)C(=O)N[C@@H]([C@@H](C)O)C(=O)N1)[C@@H](C)O)C(=O)N1CCC[C@H]1C(=O)N[C@@H](CO)C(=O)N[C@@H](CO)C(=O)N[C@H](C(=O)N1CCC[C@H]1C(=O)N[C@H](C(=O)NCC(=O)N[C@@H](CO)C(=O)N[C@@H](CC(N)=O)C(=O)N[C@H](C(=O)N[C@@H](Cc1ccc(O)cc1)C(N)=O)[C@@H](C)O)C(C)C)[C@@H](C)O
notes: also called compound 71
[1]
  hAmylin-R funct. EC50: 0.056 nM
[2]
  Ratio hCT/hAmylin funct. (hCTR EC50 against hAmylin-R EC50): 9.4
  hCTR funct. EC50: 0.527 nM

B3: N^ε1-[2-[2-[2-[[(4S)-4-carboxy-4-(19-carboxynonadecanoylamino)butanoyl]amino]ethoxy]ethoxy]acetyl]-[Arg17,Pro21,Pro27,Pro34]-h-amylin (peptide)
peptide: K([AEEA-γGlu-C20 diacid])CNTATCATQRLANFLRHSSPNFGAIPSSTNVGPNTY-NH2
modifications: disulfide 2-7; N-terminus assumed
SMILES: CC[C@H](C)[C@H](NC(=O)[C@H](C)NC(=O)CNC(=O)[C@H](Cc1ccccc1)NC(=O)[C@H](CC(N)=O)NC(=O)[C@@H]1CCCN1C(=O)[C@H](CO)NC(=O)[C@H](CO)NC(=O)[C@H](Cc1c[nH]cn1)NC(=O)[C@H](CCCNC(=N)N)NC(=O)[C@H](CC(C)C)NC(=O)[C@H](Cc1ccccc1)NC(=O)[C@H](CC(N)=O)NC(=O)[C@H](C)NC(=O)[C@H](CC(C)C)NC(=O)[C@H](CCCNC(=N)N)NC(=O)[C@H](CCC(N)=O)NC(=O)[C@@H](NC(=O)[C@H](C)NC(=O)[C@@H]1CSSC[C@H](NC(=O)[C@@H](N)CCCCNC(=O)COCCOCCNC(=O)CC[C@H](NC(=O)CCCCCCCCCCCCCCCCCCC(=O)O)C(=O)O)C(=O)N[C@@H](CC(N)=O)C(=O)N[C@@H]([C@@H](C)O)C(=O)N[C@@H](C)C(=O)N[C@@H]([C@@H](C)O)C(=O)N1)[C@@H](C)O)C(=O)N1CCC[C@H]1C(=O)N[C@@H](CO)C(=O)N[C@@H](CO)C(=O)N[C@H](C(=O)N[C@@H](CC(N)=O)C(=O)N[C@H](C(=O)NCC(=O)N1CCC[C@H]1C(=O)N[C@@H](CC(N)=O)C(=O)N[C@H](C(=O)N[C@@H](Cc1ccc(O)cc1)C(N)=O)[C@@H](C)O)C(C)C)[C@@H](C)O
notes: also called compound 50
[1]
  hAmylin-R funct. EC50: 0.038 nM
[2]
  Ratio hCT/hAmylin funct. (hCTR EC50 against hAmylin-R EC50): 17.4
  hCTR funct. EC50: 0.662 nM
